Source: the supplement of paper PMC10724198
± gives the standard deviation of the averaged measurements.

Columns and labels:
[1] = test system: Saccharomyces cerevisiae; experiment: protein stability index of tFT-peptide fusion (C-terminal peptide) (PSI (0-1 scale)); higher = more stable (slower turnover); details: genetic background: wild type; temperature: 30 C
[2] = test system: Saccharomyces cerevisiae; experiment: as above
Description: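 MPS profiling in S. cerevisiae of the tFT-X12 degron library: putative degron peptides plus stable controls, 12 aa, fused to the C-terminus of a sfGFP-mCherry timer. Cells are FACS-sorted into 8 mCherry/sfGFP bins and deep-sequenced. PSI runs from 0 (unstable) to 1 (stable). Backgrounds are wild type, das1Δ and doa10Δ at 30 °C, and wild type, das1Δ, cdc34-1 and cdc53-1 at 37 °C; 2-3 technical replicates each.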

[3] = genetic background: cdc34-1, temperature: 37 C
[4] = genetic background: cdc53-1, temperature: 37 C
[5] = genetic background: das1 deletion, temperature: 30 C
[6] = genetic background: das1 deletion, temperature: 37 C
[7] = genetic background: doa10 deletion, temperature: 30 C
[8] = genetic background: wild type, temperature: 30 C
[9] = genetic background: wild type, temperature: 37 C
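Also: PSI is a weighted mean of sequencing reads over stability bins, variants kept only with over 10 reads, mCherry proximal and sfGFP distal, peptide attached via GGGS linker.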

Sequence | protein stability index [1] | protein stability index [2, 3] | protein stability index [2, 4] | protein stability index [2, 5] | protein stability index [2, 6] | protein stability index [2, 7] | protein stability index [2, 8] | protein stability index [2, 9]
FFLLFCASFLRC | 0.381 ± 0.014 | 0.281 ± 0.021 | 0.202 ± 0.01 | 0.317 ± 0.011 | 0.433 ± 0.053 | 0.3661 ± 0.0025 | 0.294 ± 0.029 | 0.354 ± 0.0037
DYARAWRTEVVC | 0.424 ± 0.01 | 0.393 ± 0.046 | 0.448 ± 0.025 | 0.328 ± 0.021 | 0.525 ± 0.016 | 0.288 ± 0.015 | 0.332 ± 0.017 | 0.5088 ± 0.0024
CVIVCVLVWGRA | 0.24 ± 0.011 | 0.156 ± 0.025 | 0.269 ± 0.062 | 0.17 ± 0.046 | 0.329 ± 0.0095 | 0.152 ± 0.0045 | 0.172 ± 0.026 | 0.326 ± 0.013
RFPFFLPFIAFL | 0.37 ± 0.036 | 0.491 ± 0.012 | 0.539 ± 0.019 | 0.55 ± 0.0097 | 0.637 ± 0.0021 | 0.306 ± 0.013 | 0.254 ± 0.032 | 0.39 ± 0.0084
YVGILCTGILTV | 0.438 ± 0.0072 | 0.522 ± 0.024 | 0.54 ± 0.045 | 0.405 ± 0.026 | 0.564 ± 0.0085 | 0.38 ± 0.011 | 0.41 ± 0.017 | 0.549 ± 0.013
RFCRVERAILLR | 0.481 ± 0.015 | 0.334 ± 0.0068 | 0.251 ± 0.0061 | 0.33 ± 0.049 | 0.4436 ± 0.0035 | 0.622 ± 0.039 | 0.351 ± 0.026 | 0.41 ± 0.0053
VLVSVSLRVCMV | 0.162 ± 0.039 | 0.0542 ± 0.021 | 0.101 ± 0.025 | 0.106 ± 0.03 | 0.206 ± 0.015 | 0.083 ± 0.012 | 0.108 ± 0.024 | 0.178 ± 0.016
RHIPSIILAHVV | 0.295 ± 0.037 | 0.645 ± 0.057 | 0.67 ± 0.016 | 0.585 ± 0.033 | 0.707 ± 0.033 | 0.172 ± 0.019 | 0.192 ± 0.024 | 0.296 ± 0.01
STSSVMVFLRMC | 0.281 ± 0.057 | 0.5544 ± 0.0036 | 0.681 ± 0.038 | 0.601 ± 0.013 | 0.708 ± 0.036 | 0.14 ± 0.003 | 0.124 ± 0.01 | 0.161 ± 0.042
FRFYCGLVIANV | 0.483 ± 0.027 | 0.455 ± 0.016 | 0.484 ± 0.029 | 0.385 ± 0.019 | 0.51729 ± 0.00021 | 0.359 ± 0.03 | 0.377 ± 0.031 | 0.531 ± 0.039
ACVRFPLVLVVF | 0.147 ± 0.014 | 0.0242 ± 0.0039 | 0.0448 ± 0.015 | 0.0965 ± 0.018 | 0.0904 ± 0.0059 | 0.0902 ± 0.022 | 0.0825 ± 0.029 | 0.0644 ± 0.0039
GFVVYLLLSYLF | 0.333 ± 0.091 | 0.34 ± 0.016 | 0.413 ± 0.035 | 0.279 ± 0.039 | 0.482 ± 0.016 | 0.256 ± 0.0032 | 0.28 ± 0.019 | 0.437 ± 0.024
CVMWFLLSAYYL | 0.386 ± 0.061 | 0.358 ± 0.019 | 0.4288 ± 0.0029 | 0.265 ± 0.037 | 0.4336 ± 0.002 | 0.285 ± 0.013 | 0.267 ± 0.042 | 0.457 ± 0.042
VFLFSWYIFSVF | 0.184 ± 0.015 | 0.206 ± 0.0065 | 0.341 ± 0.071 | 0.234 ± 0.031 | 0.42493 ± 0.00033 | 0.1066 ± 0.00012 | 0.109 ± 0.03 | 0.169 ± 0.0034
RVIRHLRRISNF | 0.369 ± 0.021 | 0.647 ± 0.035 | 0.745 ± 0.0042 | 0.661 ± 0.0098 | 0.705 ± 0.046 | 0.142 ± 0.009 | 0.16 ± 0.045 | 0.307 ± 0.034
FFLSFICVMLCG | 0.237 ± 0.027 | 0.192 ± 0.024 | 0.247 ± 0.024 | 0.173 ± 0.013 | 0.303 ± 0.0073 | 0.165 ± 0.0019 | 0.158 ± 0.011 | 0.2575 ± 0.0025
QWRSWSFATLVT | 0.383 ± 0.0045 | 0.332 ± 0.017 | 0.321 ± 0.012 | 0.266 ± 0.049 | 0.424 ± 0.0064 | 0.22 ± 0.0082 | 0.258 ± 0.038 | 0.409 ± 0.0052
LVFRVSLVEVVL | 0.32 ± 0.014 | 0.2142 ± 0.0015 | 0.299 ± 0.0071 | 0.232 ± 0.028 | 0.36 ± 0.01 | 0.196 ± 0.0062 | 0.214 ± 0.029 | 0.334 ± 0.014
VVVYWGSLKRVC | 0.263 ± 0.041 | 0.5772 ± 0.0046 | 0.669 ± 0.012 | 0.584 ± 0.02 | 0.7 ± 0.0057 | 0.104 ± 0.0089 | 0.117 ± 0.027 | 0.289 ± 0.0064
FSFSAFARFLVI | 0.358 ± 0.036 | 0.618 ± 0.048 | 0.704 ± 0.02 | 0.604 ± 0.033 | 0.6999 ± 0.0034 | 0.243 ± 0.0081 | 0.255 ± 0.025 | 0.378 ± 0.018

Sequence | protein stability index [1] | protein stability index [2, 3] | protein stability index [2, 4] | protein stability index [2, 5] | protein stability index [2, 6] | protein stability index [2, 7] | protein stability index [2, 8] | protein stability index [2, 9]
SSCFLLFRVVWR | 0.367 ± 0.011 | 0.285 ± 0.01 | 0.321 ± 0.0088 | 0.257 ± 0.03 | 0.436 ± 0.0013 | 0.292 ± 0.005 | 0.244 ± 0.026 | 0.412 ± 0.016
SFYAGLVVGGVG | 0.528 ± 0.053 | 0.582 ± 0.038 | 0.616 ± 0.014 | 0.508 ± 0.026 | 0.6 ± 0.0064 | 0.525 ± 0.001 | 0.5 ± 0.018 | 0.5813 ± 0.0037
LFLTSFRFLRLF | 0.162 ± 0.0047 | 0.337 ± 0.016 | 0.4813 ± 0.0027 | 0.509 ± 0.0094 | 0.597 ± 0.03 | 0.0803 ± 0.006 | 0.0691 ± 0.015 | 0.134 ± 0.03
YYVIFHLFSFLI | 0.392 ± 0.094 | 0.427 ± 0.025 | 0.478 ± 0.0057 | 0.383 ± 0.033 | 0.533 ± 0.048 | 0.288 ± 0.0055 | 0.293 ± 0.022 | 0.493 ± 0.026
GVMICLDLLLSV | 0.468 ± 0.0081 | 0.482 ± 0.011 | 0.521 ± 0.021 | 0.377 ± 0.025 | 0.539 ± 0.014 | 0.361 ± 0.018 | 0.395 ± 0.017 | 0.528 ± 0.0073
VPSPWLIRSLMS | 0.409 ± 0.023 | 0.648 ± 0.024 | 0.687 ± 0.019 | 0.643 ± 0.037 | 0.716 ± 0.026 | 0.224 ± 0.0045 | 0.278 ± 0.026 | 0.518 ± 0.039
FLVVCGLLSWVW | 0.348 ± 0.05 | 0.324 ± 0.00073 | 0.407 ± 0.029 | 0.263 ± 0.039 | 0.455 ± 0.015 | 0.232 ± 0.0053 | 0.28 ± 0.032 | 0.4291 ± 0.003
WRCLHLVYLFFH | 0.286 ± 0.0091 | 0.395 ± 0.016 | 0.438 ± 0.036 | 0.365 ± 0.048 | 0.531 ± 0.047 | 0.192 ± 0.0042 | 0.173 ± 0.017 | 0.303 ± 0.013
LAGVVWVVWCVG | 0.314 ± 0.06 | 0.17 ± 0.013 | 0.21 ± 0.0091 | 0.195 ± 0.031 | 0.385 ± 0.0088 | 0.1814 ± 0.00077 | 0.198 ± 0.03 | 0.367 ± 0.039
CSLRGLFLVVSV | 0.405 ± 0.0065 | 0.3652 ± 0.0033 | 0.396 ± 0.018 | 0.289 ± 0.032 | 0.474 ± 0.016 | 0.339 ± 0.025 | 0.292 ± 0.02 | 0.451 ± 0.01
FSFSFYFALASF | 0.4603 ± 0.00095 | 0.474 ± 0.047 | 0.514 ± 0.0099 | 0.425 ± 0.018 | 0.495 ± 0.011 | 0.41 ± 0.0077 | 0.422 ± 0.0075 | 0.483 ± 0.034
RSFGGRPWVLFL | 0.192 ± 0.034 | 0.623 ± 0.037 | 0.733 ± 0.023 | 0.638 ± 0.018 | 0.7549 ± 0.0052 | 0.106 ± 0.014 | 0.0971 ± 0.025 | 0.255 ± 0.019
VFFVLIFLLFLF | 0.421 ± 0.011 | 0.438 ± 0.025 | 0.448 ± 0.03 | 0.4 ± 0.03 | 0.46 ± 0.012 | 0.41 ± 0.0085 | 0.353 ± 0.05 | 0.469 ± 0.0008
PYPSVIFFLHVY | 0.251 ± 0.049 | 0.43 ± 0.0097 | 0.572 ± 0.0084 | 0.413 ± 0.029 | 0.56 ± 0.0098 | 0.15851 ± 3.4e-05 | 0.169 ± 0.025 | 0.237 ± 0.021
LCFLVLLSLLLL | 0.528 ± 0.061 | 0.558 ± 0.047 | 0.581 ± 0.018 | 0.464 ± 0.029 | 0.5486 ± 0.0041 | 0.466 ± 0.022 | 0.456 ± 0.024 | 0.5057 ± 0.0012
FGGICFAVLLCR | 0.343 ± 0.013 | 0.246 ± 0.016 | 0.262 ± 0.0027 | 0.263 ± 0.035 | 0.3926 ± 0.0036 | 0.258 ± 0.0034 | 0.244 ± 0.0097 | 0.357 ± 0.021
LFDYEAGEVMGG | 0.717 ± 0.017 | 0.729 ± 0.042 | 0.747 ± 0.03 | 0.661 ± 0.023 | 0.783 ± 0.017 | 0.656 ± 0.025 | 0.689 ± 0.022 | 0.779 ± 0.023
SPRGVVIAFLVC | 0.129 ± 0.057 | 0.425 ± 0.016 | 0.569 ± 0.089 | 0.356 ± 0.028 | 0.5766 ± 0.0025 | 0.11 ± 0.014 | 0.124 ± 0.025 | 0.109 ± 0.0082
VLCMSIFIVFGI | 0.371 ± 0.052 | 0.197 ± 0.031 | 0.287 ± 0.023 | 0.195 ± 0.024 | 0.352 ± 0.019 | 0.1774 ± 0.0013 | 0.196 ± 0.011 | 0.303 ± 0.011
